T1: Placenta Growth Factor (PlGF), human (human, UniProt P49763 21-149)
T1 chain: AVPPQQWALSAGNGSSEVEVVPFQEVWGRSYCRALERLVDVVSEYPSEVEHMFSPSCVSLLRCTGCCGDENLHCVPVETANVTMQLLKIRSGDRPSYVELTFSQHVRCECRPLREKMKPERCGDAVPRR

B1: HC 9/SLC 6 (antibody)
chain 1: GQGTLVTVSSASTKGPSVFQPVLHQPPAMSSALGTTIRLTCTLRNDHDIGVYSVYWYQQRPGHPPRFLLRYFSQSDKSQGPQVPPRFSGSKDVARNRGYLSISELQPEDEAMYYCAMGARSRCWPRGFQSKHNSVTHVFGSGTQLTVLSQPKATPSVTLFPPSSEELQANKATLVCLMNDFYPGILTVTWKADGTPITQGVEMTTPSKQSNNKYAASSYLSLTPEQWRSRRSYSCQVMHEGSTVEKTVAPAECS
chain 2: MSWAPVLLMLFVYCTGCGPQPVLHQPPAMSSALGTTIRLTCTLRNDHDIGVYSVYWYQQRPGHPPRFLLRYFSQSDKSQGPQVPPRFSGSKDVARNRGYLSISVTHVFGSGTQLTVLSQPKATQVQLVQ
B2: HC 2/SLC 2 (antibody)
chain 1: GQGTLVTVSSASQPVLHQPPAMSSALGTTIRLTCTLRNDHDIGVYSVYWYQQRPGHPPRFLLRYFSQSDKSQGPQVPPRFSGSKDVARNRGYLSISELQPEDEAMYYCAMGARSRCWPRGFQSKHNSVTHVFGSGTQLTVLSQPKATPSVTLFPPSSEELQANKATLVCLMNDFYPGILTVTWKADGTPITQGVEMTTPSKQSNNKYAASSYLSLTPEQWRSRRSYSCQVMHEGSTVEKTVAPAECS
chain 2: MSWAPVLLMLFVYCTGCGPQPVLHQPPAMSSALGTTIRLTCTLRNDHDIGVYSVYWYQQRPGHPPRFLLRYFSQSDKSQGPQVPPRFSGSKDVARNRGYLSISVTHVFGSGTQLTVLSQQVQLVQ
B3: HC 10/SLC 2 (antibody)
chain 1: GQGTLVTVSSASTKGPSVFPQPVLHQPPAMSSALGTTIRLTCTLRNDHDIGVYSVYWYQQRPGHPPRFLLRYFSQSDKSQGPQVPPRFSGSKDVARNRGYLSISELQPEDEAMYYCAMGARSRCWPRGFQSKHNSVTHVFGSGTQLTVLSQPKATPSVTLFPPSSEELQANKATLVCLMNDFYPGILTVTWKADGTPITQGVEMTTPSKQSNNKYAASSYLSLTPEQWRSRRSYSCQVMHEGSTVEKTVAPAECS
chain 2: B2 chain 2
B4: HC 5/SLC 8 (antibody)
chain 1: GQGTLVTVSSASTKGQPVLHQPPAMSSALGTTIRLTCTLRNDHDIGVYSVYWYQQRPGHPPRFLLRYFSQSDKSQGPQVPPRFSGSKDVARNRGYLSISELQPEDEAMYYCAMGARSRCWPRGFQSKHNSVTHVFGSGTQLTVLSQPKATPSVTLFPPSSEELQANKATLVCLMNDFYPGILTVTWKADGTPITQGVEMTTPSKQSNNKYAASSYLSLTPEQWRSRRSYSCQVMHEGSTVEKTVAPAECS
chain 2: MSWAPVLLMLFVYCTGCGPQPVLHQPPAMSSALGTTIRLTCTLRNDHDIGVYSVYWYQQRPGHPPRFLLRYFSQSDKSQGPQVPPRFSGSKDVARNRGYLSISVTHVFGSGTQLTVLSQPKATPSQVQLVQ
B5: HC 4/SLC 15 (antibody)
chain 1: GQGTLVTVSSASTKQPVLHQPPAMSSALGTTIRLTCTLRNDHDIGVYSVYWYQQRPGHPPRFLLRYFSQSDKSQGPQVPPRFSGSKDVARNRGYLSISELQPEDEAMYYCAMGARSRCWPRGFQSKHNSVTHVFGSGTQLTVLSQPKATPSVTLFPPSSEELQANKATLVCLMNDFYPGILTVTWKADGTPITQGVEMTTPSKQSNNKYAASSYLSLTPEQWRSRRSYSCQVMHEGSTVEKTVAPAECS
chain 2: MSWAPVLLMLFVYCTGCGPQPVLHQPPAMSSALGTTIRLTCTLRNDHDIGVYSVYWYQQRPGHPPRFLLRYFSQSDKSQGPQVPPRFSGSKDVARNRGYLSISVTHVFGSGTQLTVLSQPKATPSVTGGGGSQVQLVQ
B6: HC 2/SLC 15 (antibody)
chain 1: B2 chain 1
chain 2: B5 chain 2
B7: HC 4/SLC 9 (antibody)
chain 1: B5 chain 1
chain 2: MSWAPVLLMLFVYCTGCGPQPVLHQPPAMSSALGTTIRLTCTLRNDHDIGVYSVYWYQQRPGHPPRFLLRYFSQSDKSQGPQVPPRFSGSKDVARNRGYLSISVTHVFGSGTQLTVLSQPKATPSVQVQLVQ
B8: HC 4/SLC 10 (antibody)
chain 1: B5 chain 1
chain 2: MSWAPVLLMLFVYCTGCGPQPVLHQPPAMSSALGTTIRLTCTLRNDHDIGVYSVYWYQQRPGHPPRFLLRYFSQSDKSQGPQVPPRFSGSKDVARNRGYLSISVTHVFGSGTQLTVLSQPKATPSVTQVQLVQ
B9: HC 3/SLC 10 (antibody)
chain 1: GQGTLVTVSSASTQPVLHQPPAMSSALGTTIRLTCTLRNDHDIGVYSVYWYQQRPGHPPRFLLRYFSQSDKSQGPQVPPRFSGSKDVARNRGYLSISELQPEDEAMYYCAMGARSRCWPRGFQSKHNSVTHVFGSGTQLTVLSQPKATPSVTLFPPSSEELQANKATLVCLMNDFYPGILTVTWKADGTPITQGVEMTTPSKQSNNKYAASSYLSLTPEQWRSRRSYSCQVMHEGSTVEKTVAPAECS
chain 2: B8 chain 2
B10: HC 8/SLC 10 (antibody)
chain 1: GQGTLVTVSSASTKGPSVQPVLHQPPAMSSALGTTIRLTCTLRNDHDIGVYSVYWYQQRPGHPPRFLLRYFSQSDKSQGPQVPPRFSGSKDVARNRGYLSISELQPEDEAMYYCAMGARSRCWPRGFQSKHNSVTHVFGSGTQLTVLSQPKATPSVTLFPPSSEELQANKATLVCLMNDFYPGILTVTWKADGTPITQGVEMTTPSKQSNNKYAASSYLSLTPEQWRSRRSYSCQVMHEGSTVEKTVAPAECS
chain 2: B8 chain 2
B11: HC 6/SLC 10 (antibody)
chain 1: GQGTLVTVSSASTKGPQPVLHQPPAMSSALGTTIRLTCTLRNDHDIGVYSVYWYQQRPGHPPRFLLRYFSQSDKSQGPQVPPRFSGSKDVARNRGYLSISELQPEDEAMYYCAMGARSRCWPRGFQSKHNSVTHVFGSGTQLTVLSQPKATPSVTLFPPSSEELQANKATLVCLMNDFYPGILTVTWKADGTPITQGVEMTTPSKQSNNKYAASSYLSLTPEQWRSRRSYSCQVMHEGSTVEKTVAPAECS
chain 2: B8 chain 2

Biological target: T1, Placenta Growth Factor (PlGF), human
Experiment: ELISA

EC50 [pM]	Binder
96	B1
49	B2
166	B3
115	B4
57	B5
53	B6
101	B7

Biological target: Hepatocyte Growth Factor (HGF), human (human, UniProt P14210 32-728)
Sequence (P14210 32-728): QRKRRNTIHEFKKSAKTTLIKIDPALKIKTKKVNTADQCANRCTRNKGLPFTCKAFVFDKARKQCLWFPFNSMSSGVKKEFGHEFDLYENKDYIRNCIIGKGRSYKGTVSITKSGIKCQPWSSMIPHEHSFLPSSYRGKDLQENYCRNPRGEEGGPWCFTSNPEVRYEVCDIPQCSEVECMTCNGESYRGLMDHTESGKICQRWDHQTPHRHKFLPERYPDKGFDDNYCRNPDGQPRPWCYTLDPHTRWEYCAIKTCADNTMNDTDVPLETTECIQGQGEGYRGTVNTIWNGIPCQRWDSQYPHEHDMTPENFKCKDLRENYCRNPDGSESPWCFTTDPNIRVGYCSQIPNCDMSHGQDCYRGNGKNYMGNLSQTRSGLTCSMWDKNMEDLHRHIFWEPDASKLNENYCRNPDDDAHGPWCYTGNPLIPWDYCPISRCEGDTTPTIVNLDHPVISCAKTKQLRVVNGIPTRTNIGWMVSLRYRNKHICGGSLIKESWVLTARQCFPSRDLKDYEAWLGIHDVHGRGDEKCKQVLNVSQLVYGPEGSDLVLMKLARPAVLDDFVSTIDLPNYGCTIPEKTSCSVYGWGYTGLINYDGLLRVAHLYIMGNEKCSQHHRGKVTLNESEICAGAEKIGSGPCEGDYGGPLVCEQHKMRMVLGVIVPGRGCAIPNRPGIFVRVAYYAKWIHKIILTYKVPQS
Experiment: ELISA

EC50 [pM]	Binder
59	B1
51	B2
63	B3
55	B4
~41	B5
~41	B8
41	B6
45	B7
~41	B9
~41	B10
~41	B11
